Measured values: PMC8922272 (The EMBO Journal, 2022)

Molecular target: GST-hAKT2 (human, UniProt P31751 1-481)
Test: pull-down

Sequence of GST-hAKT2 (P31751 whole entry): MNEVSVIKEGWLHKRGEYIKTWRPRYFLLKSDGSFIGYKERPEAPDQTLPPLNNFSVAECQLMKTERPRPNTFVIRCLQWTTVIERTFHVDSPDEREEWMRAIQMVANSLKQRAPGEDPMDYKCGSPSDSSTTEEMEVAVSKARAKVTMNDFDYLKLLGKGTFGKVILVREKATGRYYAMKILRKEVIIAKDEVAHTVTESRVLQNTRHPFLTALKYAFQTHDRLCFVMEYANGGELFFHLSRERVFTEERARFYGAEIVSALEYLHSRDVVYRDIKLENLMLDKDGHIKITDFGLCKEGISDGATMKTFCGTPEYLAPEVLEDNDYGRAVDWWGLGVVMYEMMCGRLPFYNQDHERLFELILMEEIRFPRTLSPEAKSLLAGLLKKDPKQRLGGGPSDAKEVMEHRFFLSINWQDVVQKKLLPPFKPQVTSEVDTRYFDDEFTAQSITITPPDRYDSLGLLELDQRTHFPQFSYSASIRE

B1: 6*His-hIRF3 (natural protein)
chain: MGTPKPRILPWLVSQLDLGQLEGVAWVNKSRTRFRIPWKHGLRQDAQQEDFGIFQAWAEATGAYVPGRDKPDLPTWKRNFRSALNRKEGLRLAEDRSKDPHDPHKIYEFVNSGVGDFSQPDTSPDTNGGGSTSDTQEDILDELLGNMVLAPLPDPGPPSLAVAPEPCPQPLRSPSLDNPTPFPNLGPSENPLKRLLVPGEEWEFEVTAFYRGRQVFQQTISCPEGLRLVGSEVGDRTLPGWPVTLPDPGMSLTDRGVMSYVRHVLSCLGGGLALWRAGQWLWAQRLGHCHTYWAVSEELLPNSGHGPDGEVPKDKEGGVFDLGPFIVDLITFTEGSGRSPRYALWFCVGESWPQDQPWTKRLVMVKVVPTCLRALVEMARVGGASSLENTVDLHISNSHPLSLTSDQYKAYLQDLVEGMDFQGPGES
binding result: binds
